Experimental data as given in patent publication US20260144882A1 (BIO THERA SOLUTIONS, published 2026).

T1: human Nectin-4 extracellular antigen hNectin-4-His (human, UniProt Q96NY8 32-349)
T1 construct: C-terminal 8xHis tag included
T1 sequence: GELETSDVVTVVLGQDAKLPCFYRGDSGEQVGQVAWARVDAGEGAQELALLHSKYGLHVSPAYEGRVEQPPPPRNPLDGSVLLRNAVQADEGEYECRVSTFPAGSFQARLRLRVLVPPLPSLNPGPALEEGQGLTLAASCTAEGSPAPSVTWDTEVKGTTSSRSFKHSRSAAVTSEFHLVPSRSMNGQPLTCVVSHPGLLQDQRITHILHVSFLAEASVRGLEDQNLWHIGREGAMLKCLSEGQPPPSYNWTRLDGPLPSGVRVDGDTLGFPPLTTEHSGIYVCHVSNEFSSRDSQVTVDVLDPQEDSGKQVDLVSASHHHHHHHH


Target: T1, human Nectin-4 extracellular antigen …
Experiment: ELISA, phage scFv supernatant 1:50
Method: The supernatants were diluted 50-fold, and the binding OD values of the diluted supernatants to hNectin-4-His were measured by ELISA. The samples were serially 3-fold diluted, and the EC₅₀ titer for the binding of the supernatants to the antigen was measured by ELISA. […] The light chain variable region sequence is set forth in SEQ ID NO: 25. The OD value is the measurement of ELISA, and the EC₅₀ value denotes the EC₅₀ value of the binding activity titer of the supernatant to the antigen.

Binder | OD value
1F3-1G5 scFv (scFv, V domains shown, phage clone supernatant) VH: EVQLVESGGGLVQPGGSLRLSCAASGFSFGSYGMSWVRQAPGKGLEWVSGIKPSTSTTYYADSVKGRFTISRDNSKNTLYLQMNSLRAEDTAVYYCARAELLAFDVYTASDYWGQGTLVTVSS VL: DIQMTQSPSSLSASVGDRVTITCRASQGISSYLAWYQQKPGKAPKLLIYAASSLQSGVPSRFSGSGSGTDFTLTISSLQPEDFATYYCQQHYTTPPTFGQGTKVEIKR | 1.56 OD
1F3-1F8 scFv (scFv, V domains shown, phage clone supernatant) VH: EVQLVESGGGLVQPGGSLRLSCAASGFNFGNYGMSWVRQAPGKGLEWVSRISGDGSNINYADSVKGRFTISRDNSKNTLYLQMNSLRAEDTAVYYCARAELLAFDVYTASDYWGQGTLVTVSS VL: DIQMTQSPSSLSASVGDRVTITCRASQGISSYLAWYQQKPGKAPKLLIYAASSLQSGVPSRFSGSGSGTDFTLTISSLQPEDFATYYCQQHYTTPPTFGQGTKVEIKR | 1.67 OD
1F3-1C4 scFv (scFv, V domains shown, phage clone supernatant) VH: EVQLVESGGGLVQPGGSLRLSCAASGFTFGDYGMSWVRQAPGKGLEWVSGIKPWGSGTYYADSVKGRFTISRDNSKNTLYLQMNSLRAEDTAVYYCARAELLAFDVYTASDYWGQGTLVTVSS VL: DIQMTQSPSSLSASVGDRVTITCRASQGISSYLAWYQQKPGKAPKLLIYAASSLQSGVPSRFSGSGSGTDFTLTISSLQPEDFATYYCQQHYTTPPTFGQGTKVEIKR | 1.59 OD
1F3-1C11 scFv (scFv, V domains shown, phage clone supernatant) VH: EVQLVESGGGLVQPGGSLRLSCAASGFNFSSYGMSWVRQAPGKGLEWVSAISGSGGSTYYADSVKGRFTISRDNSKNTLYLQMNSLRAEDTAVYYCARAELLAFDVYTASDYWGQGTLVTVSS VL: DIQMTQSPSSLSASVGDRVTITCRASQGISSYLAWYQQKPGKAPKLLIYAASSLQSGVPSRFSGSGSGTDFTLTISSLQPEDFATYYCQQHYTTPPTFGQGTKVEIKR | 1.63 OD
1F3-2A11 scFv (scFv, V domains shown, phage clone supernatant) VH: EVQLVESGGGLVQPGGSLRLSCAASGDNFYTFYMSWVRQAPGKGLEWVSGIKPTGSYINYADSVKGRFTISRDNSKNTLYLQMNSLRAEDTAVYYCARAELLAFDVYTASDYWGQGTLVTVSS VL: DIQMTQSPSSLSASVGDRVTITCRASQGISSYLAWYQQKPGKAPKLLIYAASSLQSGVPSRFSGSGSGTDFTLTISSLQPEDFATYYCQQHYTTPPTFGQGTKVEIKR | 1.52 OD
1F3-1E9 scFv (scFv, V domains shown, phage clone supernatant) VH: EVQLVESGGGLVQPGGSLRLSCAASGFTFDDYAMSWVRQAPGKGLEWVSGIKPSSWTTYYADSVKGRFTISRDNSKNTLYLQMNSLRAEDTAVYYCARAELLAFDVYTASDYWGQGTLVTVSS VL: DIQMTQSPSSLSASVGDRVTITCRASQGISSYLAWYQQKPGKAPKLLIYAASSLQSGVPSRFSGSGSGTDFTLTISSLQPEDFATYYCQQHYTTPPTFGQGTKVEIKR | 1.55 OD
1F3-1E1 scFv (scFv, V domains shown, phage clone supernatant) VH: EVQLVESGGGLVQPGGSLRLSCAASGFSFDDYAMSWVRQAPGKGLEWVSIIYPTGSTNYYADSVKGRFTISRDNSKNTLYLQMNSLRAEDTAVYYCARAELLAFDVYTASDYWGQGTLVTVSS VL: DIQMTQSPSSLSASVGDRVTITCRASQGISSYLAWYQQKPGKAPKLLIYAASSLQSGVPSRFSGSGSGTDFTLTISSLQPEDFATYYCQQHYTTPPTFGQGTKVEIKR | 1.64 OD
1F3-1H3 scFv (scFv, V domains shown, phage clone supernatant) VH: EVQLVESGGGLVQPGGSLRLSCAASGFNFYNYGMSWVRQAPGKGLEWVSGIKPHSDVAHYADSVKGRFTISRDNSKNTLYLQMNSLRAEDTAVYYCARAELLAFDVYTASDYWGQGTLVTVSS VL: DIQMTQSPSSLSASVGDRVTITCRASQGISSYLAWYQQKPGKAPKLLIYAASSLQSGVPSRFSGSGSGTDFTLTISSLQPEDFATYYCQQHYTTPPTFGQGTKVEIKR | 1.73 OD
1F3-1G2 scFv (scFv, V domains shown, phage clone supernatant) VH: EVQLVESGGGLVQPGGSLRLSCAASGYTFGDYGMSWVRQAPGKGLEWVSRIDPWGASIRYADSVKGRFTISRDNSKNTLYLQMNSLRAEDTAVYYCARAELLAFDVYTASDYWGQGTLVTVSS VL: DIQMTQSPSSLSASVGDRVTITCRASQGISSYLAWYQQKPGKAPKLLIYAASSLQSGVPSRFSGSGSGTDFTLTISSLQPEDFATYYCQQHYTTPPTFGQGTKVEIKR | 1.6 OD
1F3-1G7 scFv (scFv, V domains shown, phage clone supernatant) VH: EVQLVESGGGLVQPGGSLRLSCAASGDIFSNYSMSWVRQAPGKGLEWVSGIYPSGDSRRYADSVKGRFTISRDNSKNTLYLQMNSLRAEDTAVYYCARAELLAFDVYTASDYWGQGTLVTVSS VL: DIQMTQSPSSLSASVGDRVTITCRASQGISSYLAWYQQKPGKAPKLLIYAASSLQSGVPSRFSGSGSGTDFTLTISSLQPEDFATYYCQQHYTTPPTFGQGTKVEIKR | 1.56 OD
1F3-1E4 scFv (scFv, V domains shown, phage clone supernatant) VH: EVQLVESGGGLVQPGGSLRLSCAASGFSFGTYGMSWVRQAPGKGLEWVSRISGDSANIRYADSVKGRFTISRDNSKNTLYLQMNSLRAEDTAVYYCARAELLAFDVYTASDYWGQGTLVTVSS VL: DIQMTQSPSSLSASVGDRVTITCRASQGISSYLAWYQQKPGKAPKLLIYAASSLQSGVPSRFSGSGSGTDFTLTISSLQPEDFATYYCQQHYTTPPTFGQGTKVEIKR | 1.61 OD
1F3-1F4 scFv (scFv, V domains shown, phage clone supernatant) VH: EVQLVESGGGLVQPGGSLRLSCAASGDIFTGSSMSWVRQAPGKGLEWVSGIYASGSDKRYADSVKGRFTISRDNSKNTLYLQMNSLRAEDTAVYYCARAELLAFDVYTASDYWGQGTLVTVSS VL: DIQMTQSPSSLSASVGDRVTITCRASQGISSYLAWYQQKPGKAPKLLIYAASSLQSGVPSRFSGSGSGTDFTLTISSLQPEDFATYYCQQHYTTPPTFGQGTKVEIKR | 1.42 OD
1F3-1D12 scFv (scFv, V domains shown, phage clone supernatant) VH: EVQLVESGGGLVQPGGSLRLSCAASGYNFTDYGMSWVRQAPGKGLEWVSGISGSGDNKYYADSVKGRFTISRDNSKNTLYLQMNSLRAEDTAVYYCARAELLAFDVYTASDYWGQGTLVTVSS VL: DIQMTQSPSSLSASVGDRVTITCRASQGISSYLAWYQQKPGKAPKLLIYAASSLQSGVPSRFSGSGSGTDFTLTISSLQPEDFATYYCQQHYTTPPTFGQGTKVEIKR | 1.63 OD
1F3-1A9 scFv (scFv, V domains shown, phage clone supernatant) VH: EVQLVESGGGLVQPGGSLRLSCAASGYSFDNYAMSWVRQAPGKGLEWVSRISPTGGYASYADSVKGRFTISRDNSKNTLYLQMNSLRAEDTAVYYCARAELLAFDVYTASDYWGQGTLVTVSS VL: DIQMTQSPSSLSASVGDRVTITCRASQGISSYLAWYQQKPGKAPKLLIYAASSLQSGVPSRFSGSGSGTDFTLTISSLQPEDFATYYCQQHYTTPPTFGQGTKVEIKR | 1.64 OD
1F3-1H11 scFv (scFv, V domains shown, phage clone supernatant) VH: EVQLVESGGGLVQPGGSLRLSCAASGFNFTDYGMSWVRQAPGKGLEWVSRISQWGDTSNYADSVKGRFTISRDNSKNTLYLQMNSLRAEDTAVYYCARAELLAFDVYTASDYWGQGTLVTVSS VL: DIQMTQSPSSLSASVGDRVTITCRASQGISSYLAWYQQKPGKAPKLLIYAASSLQSGVPSRFSGSGSGTDFTLTISSLQPEDFATYYCQQHYTTPPTFGQGTKVEIKR | 1.65 OD
1F3-1D1 scFv (scFv, V domains shown, phage clone supernatant) VH: EVQLVESGGGLVQPGGSLRLSCAASGDIFTNYSMSWVRQAPGKGLEWVSGIYPSGDNNRYADSVKGRFTISRDNSKNTLYLQMNSLRAEDTAVYYCARAELLAFDVYTASDYWGQGTLVTVSS VL: DIQMTQSPSSLSASVGDRVTITCRASQGISSYLAWYQQKPGKAPKLLIYAASSLQSGVPSRFSGSGSGTDFTLTISSLQPEDFATYYCQQHYTTPPTFGQGTKVEIKR | 1.29 OD
1F3-1B1 scFv (scFv, V domains shown, phage clone supernatant) VH: EVQLVESGGGLVQPGGSLRLSCAASGFTFGTYGMSWVRQAPGKGLEWVSGIKPGDSTTYYADSVKGRFTISRDNSKNTLYLQMNSLRAEDTAVYYCARAELLAFDVYTASDYWGQGTLVTVSS VL: DIQMTQSPSSLSASVGDRVTITCRASQGISSYLAWYQQKPGKAPKLLIYAASSLQSGVPSRFSGSGSGTDFTLTISSLQPEDFATYYCQQHYTTPPTFGQGTKVEIKR | 1.65 OD
1F3-1D6 scFv (scFv, V domains shown, phage clone supernatant) VH: EVQLVESGGGLVQPGGSLRLSCAASGGSFYGFGMSWVRQAPGKGLEWVSGIYSHDADKRYADSVKGRFTISRDNSKNTLYLQMNSLRAEDTAVYYCARAELLAFDVYTASDYWGQGTLVTVSS VL: DIQMTQSPSSLSASVGDRVTITCRASQGISSYLAWYQQKPGKAPKLLIYAASSLQSGVPSRFSGSGSGTDFTLTISSLQPEDFATYYCQQHYTTPPTFGQGTKVEIKR | 1.44 OD
1F3-1E10 scFv (scFv, V domains shown, phage clone supernatant) VH: EVQLVESGGGLVQPGGSLRLSCAASGFNFSSYGMSWVRQAPGKGLEWVSRISPYTDNKYYADSVKGRFTISRDNSKNTLYLQMNSLRAEDTAVYYCARAELLAFDVYTASDYWGQGTLVTVSS VL: DIQMTQSPSSLSASVGDRVTITCRASQGISSYLAWYQQKPGKAPKLLIYAASSLQSGVPSRFSGSGSGTDFTLTISSLQPEDFATYYCQQHYTTPPTFGQGTKVEIKR | 1.54 OD
1F3-1G11 scFv (scFv, V domains shown, phage clone supernatant) VH: EVQLVESGGGLVQPGGSLRLSCAASGYSFTGYGMSWVRQAPGKGLEWVSGISPSGGTIGYADSVKGRFTISRDNSKNTLYLQMNSLRAEDTAVYYCARAELLAFDVYTASDYWGQGTLVTVSS VL: DIQMTQSPSSLSASVGDRVTITCRASQGISSYLAWYQQKPGKAPKLLIYAASSLQSGVPSRFSGSGSGTDFTLTISSLQPEDFATYYCQQHYTTPPTFGQGTKVEIKR | 1.65 OD
